Experimental data taken from patent US20250076311A1 (Chugai, published 2025).
Residue numbers refer to the chain shown, from its start. In names and notes the source's numbering stands. One block for each binder: values may come before it.

Key:
[1] = biological target: T1, human FcγRIIaH extracellular domain, His-tagged (human, UniProt P12318 34-217); assay: SPR (Biacore), 25C, FcgR bound per antibody captured
T1 construct: also called human FcgRIIaH; FcγRIIa type H
T1 sequence: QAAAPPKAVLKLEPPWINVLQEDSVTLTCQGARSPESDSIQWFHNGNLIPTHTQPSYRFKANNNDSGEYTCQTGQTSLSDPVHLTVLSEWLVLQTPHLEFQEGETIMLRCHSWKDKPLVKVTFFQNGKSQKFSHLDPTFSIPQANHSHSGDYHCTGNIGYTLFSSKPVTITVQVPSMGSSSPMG

[2] = biological target: T2, human FcγRIIIaV extracellular domain, His-tagged (human, UniProt P08637 17-208); assay: as above
T2 construct: also called human FcgRIIIaV
T2 sequence (P08637 17-208 F176V): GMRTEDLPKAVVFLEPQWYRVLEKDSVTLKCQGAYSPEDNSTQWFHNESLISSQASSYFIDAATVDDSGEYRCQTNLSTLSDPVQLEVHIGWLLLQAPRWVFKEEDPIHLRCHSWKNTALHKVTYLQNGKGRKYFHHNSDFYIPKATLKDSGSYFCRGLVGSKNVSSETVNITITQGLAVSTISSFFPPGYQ

[3] = biological target: T3, human FcγRIIaR extracellular domain, His-tagged (human, UniProt P12318 34-217); assay: as above
T3 construct: also called human FcgRIIaR; FcγRIIa type R
T3 chain: T1 sequence with H134R

[4] = biological target: T4, human FcγRIIb extracellular domain, His-tagged (human, UniProt P31994 43-217); assay: as above
T4 construct: also called human FcgRIIb
T4 sequence: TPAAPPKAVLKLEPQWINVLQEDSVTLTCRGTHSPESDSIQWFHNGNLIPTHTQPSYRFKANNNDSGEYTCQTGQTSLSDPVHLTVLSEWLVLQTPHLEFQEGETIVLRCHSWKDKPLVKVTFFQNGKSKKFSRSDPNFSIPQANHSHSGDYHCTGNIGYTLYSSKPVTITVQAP

[5] = biological target: T5, cynomolgus monkey FcγRIIIaS extracellular domain with C-terminal His-tag (cynomolgus monkey, UniProt A3RFZ7 21-206 (rhesus entry)); assay: SPR (BIACORE), antibody captured, FcgR analyte
T5 construct: also called cyno FcgRIIIaS; cynoFcγRIIIaS; not shown: His-tag added to the C-terminus
Experimental: (§1) The kinetic analysis of interactions between these antibodies and FcγR was carried out using BIACORE® T200 or BIACORE® 4000 (GE Healthcare). HBS-EP+ (GE Healthcare) was used as the running buffer, and the measurement temperature was set to 25° C. […] After the measurement, the antibody captured on the chip was washed off by allowing reaction with 10 mM glycine-HCl, pH1.5 and 25 mM NaOH so that the chip was regenerated and used repeatedly. The sensorgrams obtained as measurement results were analyzed by the 1:1 Langmuir binding model using the BIACORE® Evaluation Software to calculate the binding rate constant ka (L/mol/s) and dissociation rate constant kd (1/s), and the dissociation constant KD (mol/L) was calculated from these values. […] Regarding such interactions, KD values were calculated using the following 1:1 binding model described in BIACORE® T100 Software Handbook BR1006-48 Edition AE.

[6] = biological target: T6, cynomolgus monkey FcγRIIIaS extracellular domain with C-terminal His-tag (cynomolgus monkey, UniProt A3RFZ7 21-206 (rhesus entry)); assay: SPR Biacore, antibody captured, FcgR analyte
T6 construct: also called cyno FcgRIIIaS; cynoFcγRIIIaS; not shown: His-tag added to C-terminus
Experimental: as §1

[7] = biological target: T7, cynomolgus monkey FcγRIIIaS extracellular domain with C-terminal His-tag (cynomolgus monkey, UniProt Q8SPW2 21-206 at identity 1.00)); assay: SPR; KD of SG1 / KD of variant
T7 construct: also called cyno FcγRIIIaS; FcgRIIIaS
T7 chain: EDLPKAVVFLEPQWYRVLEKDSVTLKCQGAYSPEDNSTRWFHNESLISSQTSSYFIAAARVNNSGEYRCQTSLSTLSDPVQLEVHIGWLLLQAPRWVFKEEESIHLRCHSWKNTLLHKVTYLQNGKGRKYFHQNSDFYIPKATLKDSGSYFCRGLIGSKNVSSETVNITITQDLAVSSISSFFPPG
Experimental: as §1

Binding to human FcgRs (parent B3 = 100) [1]: 95
Binding to human FcgRs (parent B3 = 100) [2]: 32
Binding to human FcgRs (parent B3 = 100) [3]: 48
B1: GpH7-B3 A327N / GpL16-k0 (antibody, human IgG1, kappa)
heavy: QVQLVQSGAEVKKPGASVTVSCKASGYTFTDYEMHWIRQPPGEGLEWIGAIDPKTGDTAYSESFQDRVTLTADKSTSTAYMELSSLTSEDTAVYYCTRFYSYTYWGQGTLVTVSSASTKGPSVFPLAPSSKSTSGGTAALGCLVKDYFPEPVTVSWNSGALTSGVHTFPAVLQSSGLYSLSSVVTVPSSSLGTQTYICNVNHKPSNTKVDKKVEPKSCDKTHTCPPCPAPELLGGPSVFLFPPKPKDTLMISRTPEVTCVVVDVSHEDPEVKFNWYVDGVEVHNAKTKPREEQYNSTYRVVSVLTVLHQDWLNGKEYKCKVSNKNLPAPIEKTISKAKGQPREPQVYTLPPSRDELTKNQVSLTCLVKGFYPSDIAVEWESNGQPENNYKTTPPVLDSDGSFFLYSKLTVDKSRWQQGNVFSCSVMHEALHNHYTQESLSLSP
light: DIVMTQSPLSLPVTPGEPASISCQASESLVHSNRNTYLHWYLQKPGQSPQLLIYKVSNRFSGVPDRFSGSGSGTDFTLKISRVEAEDVGVYYCSQNTHVPPTFGQGTKVEIERTVAAPSVFIFPPSDEQLKSGTASVVCLLNNFYPREAKVQWKVDNALQSGNSQESVTEQDSKDSTYSLSSTLTLSKADYEKHKVYACEVTHQGLSSPVTKSFNRGEC
notes: also called B3 variant A327N

Binding to human FcgRs (parent B3 = 100) [4]: 94
Binding to human FcgRs (parent B3 = 100) [1]: 165
Binding to human FcgRs (parent B3 = 100) [2]: 65
Binding to human FcgRs (parent B3 = 100) [3]: 168
B2: GpH7-B3 G236A / GpL16-k0 (antibody, human IgG1, kappa)
heavy: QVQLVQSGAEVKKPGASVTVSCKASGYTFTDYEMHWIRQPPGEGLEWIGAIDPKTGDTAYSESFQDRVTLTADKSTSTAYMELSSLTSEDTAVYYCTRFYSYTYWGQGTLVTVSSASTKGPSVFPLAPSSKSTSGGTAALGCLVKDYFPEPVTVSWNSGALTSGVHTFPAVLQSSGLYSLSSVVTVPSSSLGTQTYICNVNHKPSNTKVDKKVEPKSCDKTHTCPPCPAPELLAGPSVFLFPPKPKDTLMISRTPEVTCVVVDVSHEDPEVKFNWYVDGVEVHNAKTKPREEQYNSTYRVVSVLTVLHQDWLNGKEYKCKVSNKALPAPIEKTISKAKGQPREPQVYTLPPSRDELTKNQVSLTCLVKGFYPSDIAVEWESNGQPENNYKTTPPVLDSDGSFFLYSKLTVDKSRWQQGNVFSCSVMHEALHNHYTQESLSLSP
light: B1 light
notes: also called B3 variant G236A

Binding to human FcgRs (parent B3 = 100) [1]: 116
Binding to human FcgRs (parent B3 = 100) [2]: 73
Binding to human FcgRs (parent B3 = 100) [3]: 123
B3: GpH7-B3 A330R / GpL16-k0 (antibody, human IgG1, kappa)
heavy: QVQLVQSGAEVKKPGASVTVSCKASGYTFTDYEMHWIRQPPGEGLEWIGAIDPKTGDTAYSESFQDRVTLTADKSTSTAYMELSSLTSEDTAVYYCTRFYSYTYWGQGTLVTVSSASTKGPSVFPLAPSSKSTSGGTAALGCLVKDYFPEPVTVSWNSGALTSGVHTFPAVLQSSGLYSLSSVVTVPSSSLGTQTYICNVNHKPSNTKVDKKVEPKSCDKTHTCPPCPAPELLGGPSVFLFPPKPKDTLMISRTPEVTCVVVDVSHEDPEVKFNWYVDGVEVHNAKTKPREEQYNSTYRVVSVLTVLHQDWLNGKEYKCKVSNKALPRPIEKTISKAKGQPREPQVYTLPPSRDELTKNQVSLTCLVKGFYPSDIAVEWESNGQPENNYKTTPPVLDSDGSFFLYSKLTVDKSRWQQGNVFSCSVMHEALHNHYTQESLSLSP
light: B1 light
notes: also called B3 variant A330R

Binding to human FcgRs (parent B3 = 100) [1]: 90
Binding to human FcgRs (parent B3 = 100) [2]: 87
Binding to human FcgRs (parent B3 = 100) [3]: 51
B4: GpH7-B3 P271E / GpL16-k0 (antibody, human IgG1, kappa)
heavy: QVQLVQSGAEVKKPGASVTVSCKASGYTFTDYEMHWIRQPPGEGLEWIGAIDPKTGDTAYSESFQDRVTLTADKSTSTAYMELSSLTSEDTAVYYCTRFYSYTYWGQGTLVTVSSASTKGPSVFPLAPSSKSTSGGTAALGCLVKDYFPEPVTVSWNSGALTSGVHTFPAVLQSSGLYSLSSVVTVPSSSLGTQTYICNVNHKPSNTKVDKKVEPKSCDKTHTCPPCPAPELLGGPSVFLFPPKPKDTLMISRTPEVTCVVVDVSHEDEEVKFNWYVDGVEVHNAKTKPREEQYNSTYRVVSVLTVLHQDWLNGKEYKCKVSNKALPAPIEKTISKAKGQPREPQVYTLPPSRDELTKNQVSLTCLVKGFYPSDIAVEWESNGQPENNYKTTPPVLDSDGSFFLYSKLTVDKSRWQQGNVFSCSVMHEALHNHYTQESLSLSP
light: B1 light
notes: also called B3 variant P271E

Binding to human FcgRs (parent B3 = 100) [4]: 110
Binding to human FcgRs (parent B3 = 100) [2]: 85
Binding to human FcgRs (parent B3 = 100) [3]: 55
B5: GpH7-B3 P271D / GpL16-k0 (antibody, human IgG1, kappa)
heavy: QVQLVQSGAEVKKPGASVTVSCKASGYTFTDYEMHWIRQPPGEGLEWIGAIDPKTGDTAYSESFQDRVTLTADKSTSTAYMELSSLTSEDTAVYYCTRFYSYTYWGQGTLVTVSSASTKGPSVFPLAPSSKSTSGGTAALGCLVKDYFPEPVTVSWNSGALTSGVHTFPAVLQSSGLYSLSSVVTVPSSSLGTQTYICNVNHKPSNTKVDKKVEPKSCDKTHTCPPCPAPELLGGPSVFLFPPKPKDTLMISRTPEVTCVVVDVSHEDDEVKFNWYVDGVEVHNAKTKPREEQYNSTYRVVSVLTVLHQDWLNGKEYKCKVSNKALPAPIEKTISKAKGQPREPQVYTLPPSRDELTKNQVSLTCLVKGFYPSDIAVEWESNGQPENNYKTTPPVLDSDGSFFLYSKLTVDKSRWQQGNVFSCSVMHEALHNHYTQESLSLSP
light: B1 light
notes: also called B3 variant P271D

Binding to human FcgRs (parent B3 = 100) [1]: 121
Binding to human FcgRs (parent B3 = 100) [2]: 86
Binding to human FcgRs (parent B3 = 100) [3]: 127
B6: GpH7-B3 A330K / GpL16-k0 (antibody, human IgG1, kappa)
heavy: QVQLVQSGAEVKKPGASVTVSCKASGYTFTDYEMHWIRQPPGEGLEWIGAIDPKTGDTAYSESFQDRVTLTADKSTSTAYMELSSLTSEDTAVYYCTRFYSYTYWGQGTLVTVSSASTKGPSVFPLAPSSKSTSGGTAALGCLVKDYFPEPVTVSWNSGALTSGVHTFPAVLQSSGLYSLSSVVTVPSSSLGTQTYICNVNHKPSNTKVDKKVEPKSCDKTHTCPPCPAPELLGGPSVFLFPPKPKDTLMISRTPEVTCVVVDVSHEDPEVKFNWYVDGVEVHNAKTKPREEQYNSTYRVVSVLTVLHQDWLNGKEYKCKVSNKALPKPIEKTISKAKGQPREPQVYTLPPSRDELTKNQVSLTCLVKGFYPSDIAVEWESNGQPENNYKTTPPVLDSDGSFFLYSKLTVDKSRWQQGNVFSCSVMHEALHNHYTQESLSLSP
light: B1 light
notes: also called B3 variant A330K

Kd [5]: 0.56 µM
B7: MS_M103205H795-SG1/M103202L889-SK1 (antibody, human IgG1, kappa)
heavy: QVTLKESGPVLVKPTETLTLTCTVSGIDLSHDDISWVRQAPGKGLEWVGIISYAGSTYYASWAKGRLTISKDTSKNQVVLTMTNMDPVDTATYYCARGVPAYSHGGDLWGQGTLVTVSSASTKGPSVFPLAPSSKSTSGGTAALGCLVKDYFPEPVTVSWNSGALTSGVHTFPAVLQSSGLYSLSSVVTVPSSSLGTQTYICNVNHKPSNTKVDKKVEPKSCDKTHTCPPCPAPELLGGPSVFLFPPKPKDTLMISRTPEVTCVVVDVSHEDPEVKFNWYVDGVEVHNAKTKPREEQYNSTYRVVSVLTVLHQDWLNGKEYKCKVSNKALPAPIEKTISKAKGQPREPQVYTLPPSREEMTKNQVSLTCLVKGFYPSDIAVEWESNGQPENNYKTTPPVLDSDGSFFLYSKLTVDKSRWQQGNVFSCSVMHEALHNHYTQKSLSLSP
light: DIVMTQSPATLSLSPGERATLSCTSSQSVYHANWLSWFQQKPGQPPKLLIYWASTLAYGVPSRFSGSGSGTDFTLTISSLQPEDAATYYCAGGYGGGRYAFGQGTKVEIKRTVAAPSVFIFPPSDEQLKSGTASVVCLLNNFYPREAKVQWKVDNALQSGNSQESVTEQDSKDSTYSLSSTLTLSKADYEKHKVYACEVTHQGLSSPVTKSFNRGEC
notes: parent antibody of the Fc variants; human heavy chain constant region SG1; also called MS1032LO06-SG1

Kd [5]: 4.2 µM
B8: M103205H795-MY518/M103202L889-SK1 (antibody)
heavy: QVTLKESGPVLVKPTETLTLTCTVSGIDLSHDDISWVRQAPGKGLEWVGIISYAGSTYYASWAKGRLTISKDTSKNQVVLTMTNMDPVDTATYYCARGVPAYSHGGDLWGQGTLVTVSSASTKGPSVFPLAPSSKSTSGGTAALGCLVKDYFPEPVTVSWNSGALTSGVHTFPAVLQSSGLYSLSSVVTVPSSSLGTQTYICNVNHKPSNTKVDKKVEPKSCDKTHTCPPCPAPELWNGPSVFLFPPKPKDTLMISRTPEVTCVVVDVSDEDPEVKFNWYVDGVEVHNAKTKPREELYNSTYRVVSVLTVLHQDWLNGKEYKCKVSNTALPKPIEKTISKAKGQPREPQVYTLPPSREEMTKNQVSLTCLVKGFYPSDIAVEWESNGQPENNYKTTPPVLDSDGSFFLYSKLTVDKSRWQQGNVFSCSVMHEALHNHYTQKSLSLSP
light: B7 light
notes: Fc variant of MS1032LO06-SG1; EU numbering

KD fold (SG1 = 1) [6]: 0.09 fold
B9: M103205H795-MY518/M103202L889-SK1 (antibody)
heavy: B8 heavy
light: B7 light

KD fold (SG1 = 1) [7]: 0.55 fold
B10: M103205H795-MY312 (heavy chain) with M103202L889-SK1 (light chain) (antibody, human IgG1, kappa, name in EU numbering)
heavy: B8 heavy with W237L, N238T, D270E, L297Q, P398M
light: B7 light
notes: Substitutions introduced into M103205H795-SG1; positions in EU numbering

KD fold (SG1 = 1) [7]: 0.15 fold
B11: M103205H795-MY311 (heavy chain) with M103202L889-SK1 (light chain) (antibody, human IgG1, kappa, name in EU numbering)
heavy: B8 heavy with W237L, N238T, D270E, T328K
light: B7 light
notes: as for B10

KD fold (SG1 = 1) [7]: 0.2 fold
B12: M103205H795-MY310 (heavy chain) with M103202L889-SK1 (light chain) (antibody, human IgG1, kappa, name in EU numbering)
heavy: B8 heavy with W237L, N238T, D270E, L297Q
light: B7 light
notes: as for B10

KD fold (SG1 = 1) [7]: 0.15 fold
B13: M103205H795-MY279 (heavy chain) with M103202L889-SK1 (light chain) (antibody, human IgG1, kappa, name in EU numbering)
heavy: B8 heavy with W237L, N238H, T328K
light: B7 light
notes: as for B10

KD fold (SG1 = 1) [7]: 0.49 fold
B14: M103205H795-MY278 (heavy chain) with M103202L889-SK1 (light chain) (antibody, human IgG1, kappa, name in EU numbering)
heavy: B8 heavy with W237L, N238M, T328K
light: B7 light
notes: as for B10

KD fold (SG1 = 1) [7]: 0.09 fold
B15: M103205H795-MY292 (heavy chain) with M103202L889-SK1 (light chain) (antibody, human IgG1, kappa, name in EU numbering)
heavy: B8 heavy with W237L, N238G, G239Y, T328K, P398M
light: B7 light
notes: as for B10

KD fold (SG1 = 1) [7]: 0.09 fold
B16: M103205H795-MY293 (heavy chain) with M103202L889-SK1 (light chain) (antibody, human IgG1, kappa, name in EU numbering)
heavy: B8 heavy with W237L, N238G, G239Y, D270E, T328K, P398K
light: B7 light
notes: as for B10

KD fold (SG1 = 1) [7]: 2.57 fold
B17: M103205H795-MY142 (heavy chain) with M103202L889-SK1 (light chain) (antibody, human IgG1, kappa, name in EU numbering)
heavy: B8 heavy with W237L, N238E, D270E, L297Q, T328K, K332A, P398M
light: B7 light
notes: as for B10

Kd [5]: 6.6 µM
B18: M103205H795-MY350/M103202L889-SK1 (antibody, human IgG1, kappa, name in EU numbering)
heavy: B8 heavy with D270E, L297Q, T328K, P398M
light: B7 light
notes: Fc variant of MS1032LO06-SG1; positions in EU numbering

KD fold (SG1 = 1) [6]: 0.11 fold
B19: M103205H795-MY206/M103202L889-SK1 (antibody, human IgG1, kappa, name in EU numbering)
heavy: B8 heavy with W237L, S241V, T328K
light: B7 light
notes: substitutions in EU numbering, introduced into M103205H795-SG1
